The values that follow come from paper PMC10732415, “Bacteriophage-encoded 24B_1 molecule resembles herpesviral microRNAs and plays a crucial role in the development of both the virus and its host”.

In this data set the target is Hfq (Escherichia coli, UniProt P0A6X3 1-102). In words: EMSA; 1 mM Mg2+; Hfq up to 100 nM. The conditions noted are these: protein: recombinant; chain copies: 6; label: 32P; predicted 4-bp helix.
Hfq, sequence (P0A6X3 whole entry): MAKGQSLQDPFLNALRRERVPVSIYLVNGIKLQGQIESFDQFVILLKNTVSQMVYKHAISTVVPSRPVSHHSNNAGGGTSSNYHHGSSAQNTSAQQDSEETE

Turning to UAACGUUAAGUUGACUCGGG (ssRNA) [mature 24B_1 RNA, 20 nt], the binding result is recorded as “no binding”.
